{"source": "paper PMC3750215", "test_system": "Mdj1 (wt, mature)", "assay": "EMSA", "details": "EMSA with 0.36 nM 32P-ori5 DNA; buffer, salt, pH and temperature not given (as described in ref 35)"}
{"substance": "ori5 71 bp fragment", "values": [{"measurement": "Kd", "value": 210, "unit": "nM"}]}
